Laboratory results reported in US20250215101A1, “DR5 Agonist and PLK1 Inhibitor or CDK Inhibitor Combination Therapy” (Inhibrx Biosciences, Inc., priority 2022, published 2025).

Key:
[1] = tested on: panel of colorectal cancer cell lines and panel of pancreatic cell lines; assay: Cytotoxicity screen onvansertib +/- 1 nM INBRX-109, summary over the additional panels; type: cell-based; conditions: combination of INBRX-109 and onvansertib
Text: The results for a panel of colorectal cancer cell lines are shown in Table 3 and FIGS. 4-6, and the results for a panel of pancreatic cell lines are shown in Table 4 and FIGS. 7 and 8.

[2] = tested on: CAL-78; assay: Cell viability (CellTiter-Glo) cytotoxicity assay, INBRX-109 x CDK9 or MCL-1 inhibitor matrix, 48 h, chondrosarcoma line
Protocol: (§1) On day 1, cells were seeded as follows. Monolayer cultures of each cell line (chondrosarcoma: CAL-78, OUMS-27, SW1353, and H-EMC-SS; colorectal cancer: SW620; and synovial sarcoma: HS-SY-II) were harvested for compound screening. Culture medium was aspirated, and the cells were washed once with PBS. Accutase was added and flasks were incubated at 37° C. until cells became detached. An equal volume of complete medium was added to quench the Accutase, and the cells were then pipetted up and down several times to generate a homogenous single cell suspension. The density and viability of cells was determined by Trypan Blue using a TC20 Automated Cell Counter. Experimental cells were resuspended to a concentration of 0.17×10^6/mL in Eagle's Minimum Essential Medium (EMEM)/10% FBS/Anti-Anti media (complete EMEM) and seeded in the inner wells of 384-well luminescence plates at 15 mL/well (2,500/well final). Each cell line was plated in duplicate on separate plates. Outer wells were filled with 50 mL PBS, then plates were incubated in a humidified temperature-controlled 37° C. tissue culture incubator at 5% CO2 overnight for 16 hours.
(§2) These test articles were added, in duplicate, to each cell line. The plates were then centrifuged at 400×g for 1 minute, then incubated in a 37° C. humidity-controlled tissue culture incubator (5% CO2) for 48 hours.
(§3) After incubation with the test articles, viability measurements were taken, briefly. Plates were equilibrated to room temperature for 10 minutes, then 25 μL of CellTiter-Glo 2.0® was added to each well. Plates were spun for 1 minute at 400×g, then covered and incubated in the dark for 10 minutes at room temperature. Any visible bubbles were removed with 100% ethanol vapor, then luminescence (RLU) was read on the Spectra Max M5e plate reader, using the 384-well opaque plate setting and SoftMax® Pro v5.4 software with an integration time of 50 milliseconds. To determine the effect of test articles on cell viability, raw RLU values were exported to Excel and percent survival was calculated as a percentage of vehicle control (0.5% DMSO in EMEM), where the vehicle control is set at 100%. Data was graphed in GraphPad Prism 9.

[3] = tested on: H-EMC-SS; assay: as above
Protocol: as §1, §2, §3

[4] = tested on: OUMS-27; assay: as above
Protocol: as §1, §2, §3

[5] = tested on: SW620; assay: Cell viability (CellTiter-Glo) cytotoxicity assay, INBRX-109 x CDK9 or MCL-1 inhibitor matrix, 48 h, colorectal cancer line
Protocol: as §1, §2, §3

[6] = tested on: HS-SY-II; assay: Cell viability (CellTiter-Glo) cytotoxicity assay, INBRX-109 x CDK9 or MCL-1 inhibitor matrix, 48 h, synovial sarcoma line
Protocol: as §1, §2, §3

[7] = tested on: SW1353; assay: Cell viability (CellTiter-Glo) cytotoxicity assay, INBRX-109 x CDK9 or MCL-1 inhibitor matrix, 48 h, chondrosarcoma line
Protocol: as §1, §2, §3

[8] = INBRX-109 + 125 nM flavopiridol

For `CN1CCN(c2ccc(OC(F)(F)F)c(Nc3ncc4c(n3)-c3c(c(C(N)=O)nn3CCO)CC4)c2)CC1` [Onvansertib], the “cell killing by the combination compared to either agent alone” value [1] was “increased cell killing”.

B1: INBRX-109: DR5-binding polypeptide consisting of SEQ ID NO: 7 (two VHH domains and an Fc region); DR5 agonist (protein)
chain: EVQLLESGGGEVQPGGSLRLSCAASGLTFPNYGMGWFRQAPGKEREFVSAIYWSGGTVYYAESVKGRFTISRDNAKNTLYLQMSSLRAEDTAVYYCAVTIRGAATQTWKYDYWGQGTLVTVKPGGSGGSEVQLLESGGGEVQPGGSLRLSCAASGLTFPNYGMGWFRQAPGKEREFVSAIYWSGGTVYYAESVKGRFTISRDNAKNTLYLQMSSLRAEDTAVYYCAVTIRGAATQTWKYDYWGQGTLVTVKPGGGGDKTHTCPPCPAPGGPSVFLFPPKPKDTLMISRTPEVTCVVVDVSHEDPEVKFNWYVDGVEVHNAKTKPREEQYNSTYRVVSVLTVLHQDWLNGKEYKCKVSNKALPAPIEKTISKAKGQPREPQVYTLPPSRDELTKNQVSLTCLVKGFYPSDIAVEWESNGQPENNYKTTPPVLDSDGSFFLYSKLTVDKSRWQQGNVFSCSVMHEALHNHYTQKSLSLSPGK
modifications: INBRX-109
notes: DR5 agonist
For B1, the EC50 ([2]; INBRX-109 + 2 μM AZD-5991) was 0.00393 nM, the EC50 ([2]; INBRX-109 only (Table 5)) was > 3.6 nM and the EC50 ([2]; INBRX-109 only (Table 7)) was “unstable”. For the same molecule, the EC50 ([2]; INBRX-109 only (Table 9)) was 0.0172 nM, the EC50 ([2]; INBRX-109 only (Table 11)) was 0.029 nM and the EC50 ([3]; INBRX-109 + 125 nM enitociclib) was 2.33 pM. The EC50 [3, 8] was 1.46 pM, the EC50 ([3]; INBRX-109 + 2 μM AZD-5991) was 2.59 pM and the EC50 ([3]; INBRX-109 only (Table 5)) was 2.2 pM. It also gave an EC50 ([3]; INBRX-109 only (Table 7)) of 1.96 pM, an EC50 ([3]; INBRX-109 only (Table 9)) of 9.25 pM and an EC50 ([3]; INBRX-109 only (Table 11)) of 9.26 pM. The EC50 ([3]; INBRX-109 only (Table 13)) was 10.2 pM, the EC50 ([4]; INBRX-109 + 2 μM AZD-5991) was 0.00871 nM and the EC50 ([4]; INBRX-109 only (Table 5)) was 0.982 nM. The EC50 ([4]; INBRX-109 only (Table 7)) was > 4.09 nM, the EC50 ([4]; INBRX-109 only (Table 11)) was “Unstable” and the EC50 ([4]; INBRX-109 only (Table 13)) was 8.87 nM. The EC50 ([5]; INBRX-109 + 2 μM AZD-5991) was 5.78 pM, the EC50 ([5]; INBRX-109 only (Table 5)) was 7.8 pM and the EC50 ([5]; INBRX-109 only (Table 7)) was 98.1 pM. The EC50 ([5]; INBRX-109 only (Table 9)) was 1.37 pM, the EC50 ([5]; INBRX-109 only (Table 11)) was 1.98 pM and the EC50 ([5]; INBRX-109 only (Table 13)) was 9.84 pM. The EC50 ([6]; INBRX-109 + 125 nM enitociclib) was 0.646 nM, the EC50 [6, 8] was 0.00193 nM and the EC50 ([6]; INBRX-109 + 2 μM AZD-5991) was “Unstable”. For the same molecule, the EC50 ([6]; INBRX-109 only (Table 9)) was “Unstable”, the EC50 ([6]; INBRX-109 only (Table 11)) was 0.011 nM and the EC50 ([7]; INBRX-109 + 125 nM enitociclib) was 1.05 pM. The EC50 [7, 8] was 2.81 pM, the EC50 ([7]; INBRX-109 + 2 μM AZD-5991) was 5.33 pM and the EC50 ([7]; INBRX-109 only (Table 5)) was “unstable”. For the same molecule, the EC50 ([7]; INBRX-109 only (Table 7)) was “unstable”, the EC50 ([7]; INBRX-109 only (Table 9)) was “Unstable” and the EC50 ([7]; INBRX-109 only (Table 11)) was 9.1 pM. The EC50 ([7]; INBRX-109 only (Table 13)) was “Unstable”.
